Measured values from patent EP3470429A1 (Numab Innovation AG, dated 2019).

Legend:
[1] = molecular target: T1, human PD-L1-Fc chimeric protein (human, UniProt Q9NZQ7 19-238); assay: SPR Biacore T200, PD-L1-Fc captured by anti-human Fc
T1 construct: not shown: Fc part, captured by an anti-human IgG Fc antibody

human serum albumin = molecular target: T2, human serum albumin (human, UniProt P02768 25-609); assay: SPR Biacore T200, SA amine-coupled to CM5 chip, pH 5.5
T2 construct: also called HSA; human SA

[2] = molecular target: human PD-L1 expressed on cells (human, UniProt Q9NZQ7 19-290); assay: cell-based or functional assay

B1: PRO966 (other)
chain: DIQMTQSPSSLSASVGDRVTITCQASQSINDYLAWYQQKPGKAPKLLIYKASTLASGVPSRFSGSGSGTDFTLTISSLQPEDFATYYCQQGYIITDIDNVFGTGTKVTVLGGGGGSQVQLQESGPGLVKPSETLSLTCKVSGFSFNNDYDMCWIRQPPGKGLEWIGCIDTGDGSTYYASWAKGRVTISVDSSKNQFSLKLSSVTAADTAVYYCAREAASSSGYGMGYFDLWGQGTLVTVSSGGGGSGGGGSGGGGSGGGGSIQMTQSPSSLSASVGDRVTITCQSSQSVYDNNWLAWYQQKPGKAPKLLIYRASNLASGVPSRFSGSGSGTDFTLTISSLQPEDFATYYCQGTYLSSNWYWAFGTGTKVTVLGGGGGSQVQLQESGPGLVKPSETLSLTCKVSGFSFSSGYDMCWIRQPPGKGLEWIGCVVAGSVDITYYASWAKGRVTISVDSSKNQFSLKLSSVTAADTAVYYCARKDAYSDAFNLWGQGTLVTVSSGGGGSGGGGSIQMTQSPSSLSASVGDRVTITCQSSESVYSNNQLSWYQQKPGQPPKLLIYDASDLASGVPSRFSGSGSGTDFTLTISSLQPEDFATYYCAGGFSSSSDTAFGGGTKLTVLGGGGGSGGGGSGGGGSGGGGSEVQLVESGGGLVQPGGSLRLSCAASGFSLSSNAMGWVRQAPGKGLEYIGIISVGGFTYYASWAKGRFTISRDNSKNTVYLQMNSLRAEDTATYFCARDRHGGDSSGAFYLWGQGTLVTVSS
notes: also called PRO1052; 38_27_C05 sc01 scDb-i/33-03-G02 sc01 scDb-o/19-01-H04-sc03 scFv
Which results are given for B1?
binding result [1]: binds; binding result (human serum albumin): binds

B2: PRO1059 (bispecific antibody, human IgG1, kappa, L234A L235A)
light: DIQMTQSPSSLSASVGDRVTITCQASQSINDYLAWYQQKPGKAPKLLIYKASTLASGVPSRFSGSGSGTDFTLTISSLQPEDFATYYCQQGYIITDIDNVFGTGTKVTVLGTVAAPSVFIFPPSDEQLKSGTASVVCLLNNFYPREAKVQWKVDNALQSGNSQESVTEQDSKDSTYSLSSTLTLSKADYEKHKVYACEVTHQGLSSPVTKSFNRGECGGGGSGGGGSIQMTQSPSSLSASVGDRVTITCQASQSINNVLAWYQQKPGKAPKLLIYRASTLASGVPSRFSGSGSGTDFTLTISSLQPEDFATYYCQSSYGNYGDFGTGTKVTVLGGGGGSGGGGSGGGGSGGGGSQVQLQESGPGLVKPSETLSLTCKVSGFSFSNSYWICWIRQPPGKGLEWIGCTFVGSSDSTYYANWAKGRVTISVDSSKNQFSLKLSSVTAADTAVYYCARHPSDAVYGYANNLWGQGTLVTVSS
heavy: QVQLQESGPGLVKPSETLSLTCKVSGFSFSSGYDMCWIRQPPGKGLEWIGCVVAGSVDITYYASWAKGRVTISVDSSKNQFSLKLSSVTAADTAVYYCARKDAYSDAFNLWGQGTLVTVSSASTKGPSVFPLAPSSKSTSGGTAALGCLVKDYFPEPVTVSWNSGALTSGVHTFPAVLQSSGLYSLSSVVTVPSSSLGTQTYICNVNHKPSNTKVDKRVEPKSCDKTHTCPPCPAPEAAGGPSVFLFPPKPKDTLMISRTPEVTCVVVDVSHEDPEVKFNWYVDGVEVHNAKTKPREEQYNSTYRVVSVLTVLHQDWLNGKEYKCKVSNKALGAPIEKTISKAKGQPREPQVYTLPPSREEMTKNQVSLTCLVKGFYPSDIAVEWESNGQPENNYKTTPPVLDSDGSFFLYSKLTVDKSRWQQGNVFSCSVMHEALHNHYTQKSLSLSPGK
For B2, which “IC50 (ng/ml), NF-AT Potency assay” value [2] is on record?
The value was 93.8 ng/mL.

B3: PRO1123 (bispecific antibody)
chain: DIQMTQSPSSLSASVGDRVTITCQASQSINDYLAWYQQKPGKAPKLLIYKASTLASGVPSRFSGSGSGTDFTLTISSLQPEDFATYYCQQGYIITDIDNVFGTGTKVTVLGGGGGSQVQLQESGPGLVKPSETLSLTCKVSGFSFSNSYWICWVRQPPGKGLEWIGCTFVGSSDSTYYANWAKGRVTISVDSSKNQVSLKLSSVTAADTAVYFCARHPSDAVYGYANNLWGQGTLVTVSSGGGGSGGGGSGGGGSGGGGSIQMTQSPSSLSASVGDRVTITCQASQSINNVLAWYQQKPGKPPKLLIYRASTLASGVPSRFSGSGSGTDFTLTISSLQPEDFATYYCQSSYGNYGDFGTGTKVTVLGGGGGSQVQLQESGPGLVKPSETLSLTCKVSGFSFSSGYDMCWIRQPPGKGLEWIGCVVAGSVDITYYASWAKGRVTISVDSSKNQFSLKLSSVTAADTAVYYCARKDAYSDAFNLWGQGTLVTVSS
notes: also called 38-02-A04 sc05 IF scDb-i/33 03 G02 sc01 scDb-o
Does B3 bind [1]?
Result: binds

B4: PRO1013 (scFv)
scFv: DIQMTQSPSSLSASVGDRVTITCQASQSIGTYLAWYQQKPGKAPKLLIYRAFILASGVPSRFSGSGSGTDFTLTISSLQPEDFATYYCQSNFYSDSTTIGPNAFGTGTKVTVLGGGGGSGGGGSGGGGSGGGGSQVQLVQSGAEVKKPGASVKVSCKASGFSFNSDYWIYWVRQAPGQGLEWMGSIYGGSSGNTQYASWAQGRVTMTRDTSISTAYMELSSLRSEDTAVYYCARGYVDYGGATDLWGQGTLVTVSS
Which “IC50 (ng/ml), NF-AT Potency assay” value [2] does the source give for B4 here?
The value was 21.3 ng/mL.

B5: PRO1060 (bispecific antibody, human IgG1, kappa, L234A L235A)
light: DIQMTQSPSSLSASVGDRVTITCQASQSINDYLAWYQQKPGKAPKLLIYKASTLASGVPSRFSGSGSGTDFTLTISSLQPEDFATYYCQQGYIITDIDNVFGTGTKVTVLGTVAAPSVFIFPPSDEQLKSGTASVVCLLNNFYPREAKVQWKVDNALQSGNSQESVTEQDSKDSTYSLSSTLTLSKADYEKHKVYACEVTHQGLSSPVTKSFNRGEC
heavy: QVQLQESGPGLVKPSETLSLTCKVSGFSFSSGYDMCWIRQPPGKGLEWIGCVVAGSVDITYYASWAKGRVTISVDSSKNQFSLKLSSVTAADTAVYYCARKDAYSDAFNLWGQGTLVTVSSASTKGPSVFPLAPSSKSTSGGTAALGCLVKDYFPEPVTVSWNSGALTSGVHTFPAVLQSSGLYSLSSVVTVPSSSLGTQTYICNVNHKPSNTKVDKRVEPKSCDKTHTCPPCPAPEAAGGPSVFLFPPKPKDTLMISRTPEVTCVVVDVSHEDPEVKFNWYVDGVEVHNAKTKPREEQYNSTYRVVSVLTVLHQDWLNGKEYKCKVSNKALGAPIEKTISKAKGQPREPQVYTLPPSREEMTKNQVSLTCLVKGFYPSDIAVEWESNGQPENNYKTTPPVLDSDGSFFLYSKLTVDKSRWQQGNVFSCSVMHEALHNHYTQKSLSLSPGKGGGGSGGGGSIQMTQSPSSLSASVGDRVTITCQASQSINNVLAWYQQKPGKAPKLLIYRASTLASGVPSRFSGSGSGTDFTLTISSLQPEDFATYYCQSSYGNYGDFGTGTKVTVLGGGGGSGGGGSGGGGSGGGGSQVQLQESGPGLVKPSETLSLTCKVSGFSFSNSYWICWIRQPPGKGLEWIGCTFVGSSDSTYYANWAKGRVTISVDSSKNQFSLKLSSVTAADTAVYYCARHPSDAVYGYANNLWGQGTLVTVSS
Which “IC50 (ng/ml), NF-AT Potency assay” value [2] does the source give for B5 here?
The value was 133 ng/mL.

B6: PRO963 (other)
chain: DIQMTQSPSSLSASVGDRVTITCQASQSINDYLAWYQQKPGKAPKLLIYKASTLASGVPSRFSGSGSGTDFTLTISSLQPEDFATYYCQQGYIITDIDNVFGTGTKVTVLGGGGGSQVQLQESGPGLVKPSETLSLTCKVSGFSFSNSYWICWIRQPPGKGLEWIGCTFVGSSDSTYYANWAKGRVTISVDSSKNQFSLKLSSVTAADTAVYYCARHPSDAVYGYANNLWGQGTLVTVSSGGGGSGGGGSGGGGSGGGGSIQMTQSPSSLSASVGDRVTITCQASQSINNVLAWYQQKPGKAPKLLIYRASTLASGVPSRFSGSGSGTDFTLTISSLQPEDFATYYCQSSYGNYGDFGTGTKVTVLGGGGGSQVQLQESGPGLVKPSETLSLTCKVSGFSFSSGYDMCWIRQPPGKGLEWIGCVVAGSVDITYYASWAKGRVTISVDSSKNQFSLKLSSVTAADTAVYYCARKDAYSDAFNLWGQGTLVTVSSGGGGSGGGGSIQMTQSPSSLSASVGDRVTITCQSSESVYSNNQLSWYQQKPGQPPKLLIYDASDLASGVPSRFSGSGSGTDFTLTISSLQPEDFATYYCAGGFSSSSDTAFGGGTKLTVLGGGGGSGGGGSGGGGSGGGGSEVQLVESGGGLVQPGGSLRLSCAASGFSLSSNAMGWVRQAPGKGLEYIGIISVGGFTYYASWAKGRFTISRDNSKNTVYLQMNSLRAEDTATYFCARDRHGGDSSGAFYLWGQGTLVTVSS
notes: also called PRO1051; 38_02_A04 sc01 scDb-i/33-03-G02 sc01 scDb-o/19-01-H04-sc03 scFv
For B6, which “IC50 (ng/ml), NF-AT Potency assay, with HSA” value [2] is on record?
The value was 275 ng/mL.

Does B6 bind (human serum albumin)?
Result: binds

B7: PRO951 (bispecific antibody)
chain: DIQMTQSPSSLSASVGDRVTITCQASQSINDYLAWYQQKPGKAPKLLIYKASTLASGVPSRFSGSGSGTDFTLTISSLQPEDFATYYCQQGYIITDIDNVFGTGTKVTVLGGGGGSEVQLVESGGGLVQPGGSLRLSCAASGFSFNNDYDMCWVRQAPGKGLEWIGCIDTGDGSTYYASWAKGRFTISRDNSKNTVYLQMNSLRAEDTAVYYCAREAASSSGYGMGYFDLWGQGTLVTVSSGGGGSGGGGSGGGGSGGGGSIQMTQSPSSLSASVGDRVTITCQSSQSVYDNNWLAWYQQKPGKAPKLLIYRASNLASGVPSRFSGSGSGTDFTLTISSLQPEDFATYYCQGTYLSSNWYWAFGTGTKVTVLGGGGGSQVQLQESGPGLVKPSETLSLTCKVSGFSFSSGYDMCWIRQPPGKGLEWIGCVVAGSVDITYYASWAKGRVTISVDSSKNQFSLKLSSVTAADTAVYYCARKDAYSDAFNLWGQGTLVTVSS
For B7, which “IC50 (ng/ml), NF-AT Potency assay” value [2] is on record?
Its value is 88.5 ng/mL.

B8: PRO830 (scFv)
scFv: DIQMTQSPSSLSASVGDRVTITCQASQSINDYLAWYQQKPGKAPKLLIYKASTLASGVPSRFSGSGSGTDFTLTISSLQPEDFATYYCQQGYIITDIDNVFGTGTKVTVLGGGGGSGGGGSGGGGSGGGGSQVQLQESGPGLVKPSETLSLTCKVSGFSFSSGYDMCWIRQPPGKGLEWIGCVVAGSVDITYYASWAKGRVTISVDSSKNQFSLKLSSVTAADTAVYYCARKDAYSDAFNLWGQGTLVTVSS
For B8, which “IC50 (ng/ml), NF-AT Potency assay” value [2] is on record?
The value was 42.9 ng/mL.

B9: PRO1058 (other)
chain: DIQMTQSPSSLSASVGDRVTITCQASQSINDYLAWYQQKPGKAPKLLIYKASTLASGVPSRFSGSGSGTDFTLTISSLQPEDFATYYCQQGYIITDIDNVFGTGTKVTVLGGGGGSQVQLQESGPGLVKPSETLSLTCKVSGFSFNNDYDMCWIRQPPGKGLEWIGCIDTGDGSTYYASWAKGRVTISVDSSKNQFSLKLSSVTAADTAVYYCAREAASSSGYGMGYFDLWGQGTLVTVSSGGGGSGGGGSGGGGSGGGGSIQMTQSPSSLSASVGDRVTITCQSSQSVYDNNWLAWYQQKPGKAPKLLIYRASNLASGVPSRFSGSGSGTDFTLTISSLQPEDFATYYCQGTYLSSNWYWAFGTGTKVTVLGGGGGSQVQLQESGPGLVKPSETLSLTCKVSGFSFSSGYDMCWIRQPPGKGLEWIGCVVAGSVDITYYASWAKGRVTISVDSSKNQFSLKLSSVTAADTAVYYCARKDAYSDAFNLWGQGTLVTVSSGGGGSGGGGSVVMTQSPSSLSASVGDRVTITCQASQIISSRSAWYQQKPGQPPKLLIYQASKLASGVPSRFSGSGSGTDFTLTISSLQPEDFATYYCQCTYIDSNFGAFGGGTKLTVLGGGGGSGGGGSGGGGSGGGGSEVQLVESGGGLVQPGGSLRLSCAASGFSFSSSYWICWVRQAPGKGLEWVGCVFTGDGTTYYASWAKGRFTISRDNSKNTVYLQMNSLRAEDTATYFCARPVSVYYYGMDLWGQGTLVTVSS
notes: also called 38_27_C05 sc01 scDb-i/33-03-G02 sc01 scDb-o/mxr HSA (23-13-A01-sc03,sk17sh4)
Does B9 bind [1]?
Result: binds

Does B9 bind (human serum albumin)?
Result: binds
